According to a protein production outcome set (Wang et al. 2014):

Test: label from the status in PepcDB records
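Also: failed if final PepcDB status was selected cloned or expressed and not failed if soluble or beyond.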

Sequence	protein production
MTAVSSVYAQRLLITLFLVSFGIYLFVATVTYTPFDPGWMHISSDTQNVSNASGVAGAWIADLMFGFLGWASLLIPIFLFIEAIQIWWPRSFLTRPFRYAAQFFIILATSTLLYLYWNVPADTLENASGGIIGFEVGQSLSGLLTIYGATLFLVAFWVLLITLAFGIQWNRTWATLKATPAYLQDLFYKNVSPNESDYDLTEQPKKTASTSKTTVASEQNHQDQVHDQHLEQTTRTDQKAFDTTTKNFVSDEMVEKLFADVVAKEQYAQQQVQAVNTSIEDPAFEQTIQKAHQLEKEAKRLVPTGEVWKALQTDDSTHKQEIDALLRAADDNEPSVTPMTSDELLANLKAQQAQQNHTQPNNHTAKLNWNDDQIFDELLAAMPNSKIGSDIHTPFVEHREDTTPDHTDHLIQQVEQTLQASSNTLQPKNMTNLDEAEEQSDLLTETVEENPSTHYAGQPQNRSFTSNELTAKDQEKLSKEEFIEAWQETAGKPVEDDFDFDAPLTDASGRPMSRAMQVAQKRRDLPTLPGLELLDKVDPNKKVNFTVEQLERLSELLEIKLQEFNVKAKVVEAQPGPVVTRFELDLAPGVKASKVTNISRDLARSMSMASVRVVEVIPGKPYIGIEVPNSSREMVRLIELLETASFRDPAGLLSMAMGKDISGNPVITDLGKAPHMLVAGTTGSGKSVAVNSMILSMLLKYTPDQLRLILIDPKQLELANYNDIPHLLTPVVTDMKDAVSALNWCVNEMERRYKLMSFLKIRKLADYNRKVEEAIANGEDLIDPTWKPSDSATQERAPRLQPLPSIVIVADEFADMIMQVGKKAEEMITRLAQKSRAAGIHLLLATQRPSVDVITGLIKANIPTRVALRVNSKIDSRTILDAGGAEDLLGHGDMLFLGPGKIEPERVHGAFIGDDEVNRICDAWRERGEPNYVDEILTPFDEEPTSRGFEDGGEGASDRDMLYDQCVAFVLETRKASTSSLQRKFSLGYNRAARIIDQMEENGIVSAMGANGKREILV	failed
MTAYTSWQTPHLFIFIQQDYILDSIPLSSLFITLIILLLLSAFFSSAETGLMSLNRYKIRHLTAQGHKGAKLAEKLLNKTDVLLSLILICNNLINIAASAIATMIGIRLAGDTGIAIATGILTLVMLVFSEILPKTIAVIYPEKISFLASYILTPLKKLLMPLVFLMNLIIKYLMKLMRIRQHEKSGLSIEELRSVVLEAGKFIPTAHQEMLISILDMEKVTVEDIMVPRNDIGGIDIEDDWKAIIRQLNHAAHGRVVLYKGNMDKNILGILRIREAFRLLLDKEEPSKKTLIRAVDEAYFIPEGTPLITQLMHFKTNKERLGLVVDEYGDIKGLVTLADILEEIVGEFTTSTAPTLAEEVKQQSDGSVIIEGSANLRDLNKLFNWHLPINEVRTFNGLILEHLEKIPIEGTQFRLNQLNITVLEVADNMVKKVKVELIE	failed
MTDARTTVVVITHNRCAEVLRTLDRLAELPERPAVIVTDNGSTDGTAAAVARHHPGVRLLRSGRNLGAVGRNLAVRQVTTPYVAFCDDDSWWAPGSLSGAADLLDRYPAVGSVTARILVEPEGTEDPIVEELRDSPVPRPDWLPGPALGSFLAAATVLRTDAFRAAGGFHPRLWLGGEEELLAADLAANGWWLTYAGQLTIHHHPSGVRDSTVRRSHGIRNTLWFTWLRRPVGPALRRTLHLARTVPRDTASLRAFAEATAALPWVLRERRVLPPEVEARLRALEPAQRDSTARSYTGLEHHHHHH	failed
MTDDRPPLPPFTRATAAQKVQAAEDAWNTRDPHKVSLAYSPDSVWRNRDTFVTGRAAIVELLTAKWAREREYALRKDLWAFDGNRIAVRFQYECQDADGQWWRSYGNELWEFDEHGLMTRREAGIHDVRIEERERRILGPRPEAERGRSFPVQ	failed
MTDDVTNVEQPSTASEQQPQDVPAAEPSAAKKRRANKAKSKATAAAIEQRLGHSFADPSLLTTAFTHVSALKSARRTDSYQRLEFLGDHVLGLIVSDMLYRAFPDADEGELSKRLADLVRKETCADVARSLDLVEGIKLGTVGAGAGAKLRKSVLGDICEAVIGAIYLDGGYEAASDFVRRNWTERMRKPARSLRDPKTVLQEWAQARGLPTPVYREVERTGPHHDPQFRVAVILPGLEPAEGLGGSKRAAEKVAASAMLAREGVGTGGNDG	failed
MTDEDSEANALADPDNPPLSAEQLASAPRMPRIKIIRRALKLTQEEFSARYHIPLGTLRDWEQGRSEPDQPARAYLKIIAVDPEGTAAALRKGAT	not failed
MTDESDSTAHVSCIIPVYNDSVGIKNTLRSVVGQEYHGYDVYVVDNGSTDGSRRRVRNCAAESDDIQLLVEDEVQGSYAARKTGVQNAESDVLAFLDADETVDEDWLETALGAMQEQDVDYLGCNVELTCPEDTLVGRYNARTGFPVEEYLEDQNYAPTCALLVRRKVFEDVGPFDARLISGGDREFGDRVHDAGYEQGYAENATVYHPARTSLESLAKKNFRVGRGFCQKQRYYPERYGKPGIPPTPSGPSGGDDGDEPDASLTRLAFTLLSIAMLACRGVGYYYEFVVGEENDDIPAPTSLEHHHHHH	failed
MTDKIFQEKVGPVALTIVPTQKYKSNKIVFKFRAPLERETVTKRSLLSILLETNSEKYPTQTAFRKQLANLYGANFYTTTAKKGNEHVLTVVFDMIDGQYVSDGENILKDAFAFIEQAIFQPNATNGAFDEEIVVREKENLKSSLEGIYDDKIRFASKRLVEEMFRDDEFRFGAAGVLEDVDAITAKDLYEYYLKFIKEDVIEIFICGDVTKEEVMPLIEKMAFSPRPERKGVFYTKEAPKETRVIHEQQAINQGKLVLGYQTETLFGDDDFVALQLANGLLGGFANSKIFINVREKASLAYYASSRIDSFKGYMIISAGIDEVNYKQALTIIEEQIVAMKQGDFTEDELNQTKEMLINQLLETNDQAQGLIELAYNNVLREANLDLENWIIKIKQATKQEVVAAINKIKPDTIYFLSKGGEELHGKNHI	failed
MTDKKTTEKKETETAATFTEELTAVLEEIKEEPVKEKKKGEIVTIVNETDIQIGEREYRIVKNHRDAFDPERLGERFSEVLARYDYIVGDWGYEQLRLRGFFDTSNRRAAPDQRIDTLEDYLYEYCNFGCAYFVIERTGERKEKTTHRRRRHKKNNRSNAFVEEKSAPANKNSKPVIRTRKEENKKTTTPKQPSPKKSGKGFTIRQREELEHHHHHH	not failed
MTDLSARDRLAPDSSPRLLALASIALEAGALARQSLRRRHVDQMVSKGPRDYQTEIDVAVERLIVAGVSEAFPDHAIQGEEETGNRTGGPDAPVIYIDPIDGTTNFAWGLPHFGMTIAIAEQGKITCGVVYDSMLDELFSAEIGKGATLNGEKLRCADVADVQNVLVGAGLPVPGQVKSVDEELYHRALRRLMDNTAGVRRLGSAALSIAYVACGRLDGFFEDGLQVHDYGAAALILTEAGGVVTGFGGMPVDAGGGILAASPALHPWLLAGFQPGMDR	failed
MTDNKIKNEDGKLELIINAAQKRFAHYGLCKTTMNEIASDVGMGKASLYYYFPDKETLFEAVIKKEQNVFFDEMDKILNSGIDATALLKKYVKLRSLHFRHLLNLSKLRSDFFHNTKPVFAKAFESFKQKEVEIVAGIIQYGITTKEFKRGNKHENAEFLVHLLLGVRMVKLKYKEINDFDESDYEDLDKNMCKVAGMFLKEIQTEVASR	not failed
MTDNLINNGTKTTPEAEILTAASNSRSSDAQHDDTAPAGEVLLDIDPDELLSDPAEKEETSAQDIALPDHVAGSGSLDRLIDQARDYAEAATAENTNKAYKADWKHFTGWCRRKGVDALVPSPAVIGLYISDCAKPQDGSPALSVSTIERRLSGLAANYRQRGLALDMKDRHIASVWAGIKRHHAKPPTQKEAVLIEDVLAMVGALSYSLRDLRDRAILLIGYAGGLRRTEIVGLDVGKDESDDGRGWVEILEGGAVLHIKGKTGWREVEIGRGSADQTCPVYALEQWLHYAKIDVGSVFRQVFRDNSRIGPERLSDKHVVRLIKRLVLETGVGLDRPALSKLSDEERAKFFAGHSLRAGLASGAEVDERYVQKQLGHASAEMTRRYQRRRDRFRVNLTKAVGL	failed
MTDNNQNNENHENSSENSKADEMRAGAFERFTNRKKRFRENAQKNAEYSNHEASSHHKKEHRPNKKPNNHHKQKHAKTRNYAQEELDSNKVEGVTEILHVNERGTLGFHKELKKGVEANNKIQVEHLNPHYKMNLNSKASVKITPLGGLGEIGGNMMVIETPKSAIVIDAGMSFPKEGLFGVDILIPDFSYLHQIKDKIAGIIITHAHEDHIGATPYLFKELQFPLYGTPLSLGLIGSKFDEHGLKKYRSYFKIVEKRCPISVGEFIIEWIHITHSIIDSSALAIQTKAGTIIHTGDFKIDHTPVDNLPTDLYRLAHYGEKGVMLLLSDSTNSHKSGTTPSESTIAPAFDTLFKEAQGRVIMSTFSSNIHRVYQAIQYGIKYNRKIAVIGRSMEKNLDIARELGYIHLPYQSFIEANEVAKYPDNEILIVTTGSQGETMSALYRMATDEHRHISIKPNDLVIISAKAIPGNEASVSAVLNFLIKKEAKVAYQEFDNIHVSGHAAQEEQKLMLRLIKPKFFLPVHGEYNHVARHKQTAISCGVPEKNIYLMEDGDQVEVGPAFIKKVGTIKSGKSYVDNQSNLSIDTSIVQQREEVASAGVFVATIFVNKNKQALLESSQFSSLGLVGFKDEKPLIKEIQGGLEVLLKSSNAEILNNPKKLEDHTRNFIRKALFKKFRKYPAIICHAHSF	failed
MTDNRKFEIVADTELPGTPERVWQAVTKDTPAWMFPTDQWPDVKTTEEYPSHLVSRMDGPDGWFNQLEHVLEPLEGGRAKLHYVHSGIFADNWDEQYDGASKHTEFYLHTLGQYLQHFDGKPVVFTDIQAPPSSQAPDGFVQLKQALGVDGLPTGTSVDVDIDGVGRLSAEVDFSNENFLGLRTADTMYRFFGRNVFGAPVGMTVHEFSGSGDSELTAKAWGAFLEKVYALEHHHHHH	failed
MTDNRPCRKDLLDWINVVSFAVDDVKLFLDTHPCNKEAMEFFDEFKKQRVQALKEYAKYYGPLTLDTASTCTERWNWINEPWPWQEGGCLEHHHHHH	failed
MTDPSSTLRLRGLLAEIVAAPLTRTVALLALCSAYIQGPLTKIFDFPGAIAEMNHFGLQPAAAFAVFVIIFELTASAMVVTGVLRWVGALALSGFTLLATFIALRFWEMAPGMDRMMATNAFFEHLGLAGAFVIVAAIDLTKGTGK	not failed
MTDRIMALVDGSGFSRSVCLHAAWLAQRLELPVDLLHVLGRREAADRGDLSGALQLGARTALLEELAALDAERARLAQAQGRAILEDAQAILAAESVETTPHLRQGDLIDTVAGFERSGRALVVGKRGRAAGFASAHLGSNLERLLRASKLPVLIVPADCR	failed
MTDYFHLHFNKGEFNAENLFIELKGNFAVYGSRWYFGESIETLKGTARTLDKADGAISLEDGIISRNGIALLDDSQGFIWDEQSGYIERENQIDLYFFAYGHDYRGAIRDFYHLTGSTPLLPRYALGNWWSRYWPYTSDEYLDLIDRFETEKIPLSIGVLDMDWHITDIPARFGSGWTGYSWNRNLIPNPEQLLQQLHDRKLKLSLNVHPADGIRAYEEAYPQIAKRLGLNVELEEPAIFDFFNPSFREAYFKDVHYELEKQGVDFWWIDWQQGTQGMLDPLWLLNHYHYQDSCKNAEGGLILSRYAGPGSHRYPVGFSGDTIISWNSLRFQPYFTATASNIGYSWWSHDIGGHMLGDYDEELQTRWLQFGVFSPITRLHSSRSPFNSKEPWFFSETTSKIMKKYLRLRHQMIPYLYTMNVQTHEEGAPLISPIYYFYPENDESYNVPNQYFFGTELMVAPIVEKMDLTFQSAKVDVWFPEGEWYDFFSEKKYTGGVKLSVYRDISTTPVFAKSGAIIPLVGSEIGMGVDLPEVVDWYVFPGKQHSFEMLEDQNGQRYKTRLSIDWEMGMVELALQGDSSIVPSNRKHRIHFKGTNVSIIELPNKNDTAKFEWKDNKRTSLNDEVFRLLKTASLPYELKDRLLNQFINAKNSHDLMNILHHQDKELRGRLLEMIFTSQNLEHHHHHH	failed
MTDYVNYNQERWNRVSARQGNAYTVPLSHEEFLVAKDKPLSVSLTVGKTVPLDWFEKAKGKKLLGLACGGGQQGPISAAHSYETTILDFSKEQLDKDRLVAERENLDLQTVQADMTQAFPFEDESFDIIFCPVSNIYIEDLANMWQESYRVLKKGGLLMVGYMNPWIYVFDADDVWEHPDKTLVPKYSLPFNARQLEEAGQITIDPEYGYEFSHTLEEQIAGQLRAGFAMIDFYESKDSRNRLTQFASDYLANLSMKW	failed
